This passage reports Kd results from paper PMC11363321.

pKd: −log10 of the molar value.

As usually defined, the pKd is the Kd on a negative log10 scale, so that one unit is a factor of ten.

The data set deals with Deoxymab-3 (DX3), humanized 3E10 antinuclear IgG1 (humanized (3E10 CDRs from MRL/lpr mouse on human IgG1 framework)). Nature of the data set: SPR. The following applies: 1:1 kinetic fit, SPR Biacore T200, CM5 chip with neutravidin, biotinylated ssDNA (0.025 uM) immobilized, DX3 in PBS pH 7.4, contact 120 s, dissociation 400 s, temperature not ….

With “30-mer single-stranded DNA oligonucleotide”, the pKd reads like this: (experiment 1, DX3 titrated from 500 nM) 6.95; (experiment 2 (replicate)) 6.95.
